Results on one substance are retold here after article PMC10899662, “TopBP1 utilises a bipartite GINS binding mode to support genome replication” (Nature Communications, 2024).

The target in the assay is GINS (HIS-(3C)-Sld5, Psf1, Psf2, Psf3) for structural and fluorescence polarisation studies, Q9BRT9;Q14691;Q9Y248;Q9BRX5. Nature of the assay: fluorescence polarisation. Conditions: point at the highest concentration, 150 µM; parent: est. 180; read off a plot.

Consider “fluorescently labelled GINI-core peptide (Ala478-Gly497), WT L490P; L491P”, for which the response was found to be 3 mP.
